Measurements: the supplement of paper PMC10567573

Test: protein stability index of a GFP-peptide fusion (GPS, HEK-293T) (PSI 1-6); higher = more stable
Details: c terminus: a fixed tail appended
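Further: lentivirally expressed fusions sorted by FACS into six bins by GFP to DsRed ratio, PSI derived from sequencing read proportions per bin multiplied by bin number.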

## TTLLKCYLHTNVALVAPLLRLENN
parent: IOH40537_76
  protein stability index: 3.28

## WCLVQICEKYLPGYYSEKLEAIQL [TBC1D10A WT]
parent: IOH41348_37
  protein stability index: 2.8

## ICPICLEMFTKPVVILPCQHNLCR
parent: IOH40604_5
  protein stability index: 2.21

## EDLTAKRKRMKMDKTCSKTKNKSK [FAM9B WT]
parent: IOH41618_11
  protein stability index: 4.96

## YNENVYTEDGKLDIWSKSNYQVFQ [MED27 WT]
parent: IOH39902_37
  protein stability index: 2.11

## NLDTEELCEYFSQHLGEYENVLAA
parent: IOH40093_14
  protein stability index: 2.41

## HVPNPPSGISFPSVVDHPMPEERA
parent: IOH40237_11
  protein stability index: 2.54

## RFLRMLLRLADEFGVAVVITNQVV
parent: IOH41191_42
  protein stability index: 2.39

## WIHRPGCRCKNSNTVYCKLESCPS [SPRY1 WT]
parent: IOH39997_49
  protein stability index: 2.19

## CLLGLGSLVLILSLSYTVLIVGRI
parent: IOH40813_20
  protein stability index: 3.34

## QKKDCVPLMKPHRPWADTCSSSGK
parent: IOH40237_6
  protein stability index: 3.2

## ITEEKVCMVCKKKIGNSAFARYPN
parent: IOH40537_140
  protein stability index: 2.44

## YANGGLNYSYRGYGALSSNLQPPA [C20orf112 WT]
parent: IOH40687_56
  protein stability index: 2.06

## INRADYCPECYPDNPANRSLVLPW [IFRG15 WT]
parent: IOH41552_8
  protein stability index: 2.18

## YCAKLCEPQWFYEETESSDDVEVL
parent: IOH40091_6
  protein stability index: 2.25

## FQASNPYLPTRGGTTMASGGRFRC
parent: IOH40604_10
  protein stability index: 1.74

## VVAYLALAALSATISFRIYKSVLQ [RTN1 WT]
parent: IOH40898_10
  protein stability index: 3.02

## YIKVDWQRVEKDMKKAKEQLKIRK [FUNDC2 WT]
parent: IOH40818_22
  protein stability index: 1.68

## FSFKVSRWMGLACFRSLAASSPSI [CCDC70 WT]
parent: IOH40382_3
  protein stability index: 2.79

## GVSKVGLRKIIDFIYTAKLSLNMD
parent: IOH40892_24
  protein stability index: 2.67

## ASSVESTLPVLEASSWKKQVSHDF [FBXO34 WT]
parent: IOH41760_90
  protein stability index: 3

## FQMEKIEHGYENMNHFTVNLNREE
parent: IOH40604_50
  protein stability index: 2.79

## LYLQLAICSSLQNLEKTIFCLQKL
parent: IOH40091_23
  protein stability index: 2.99

## RTHTGEQPYTCSICRRNFSRRSSL [ZNF75A WT]
parent: IOH41486_45
  protein stability index: 2.88

## YLPTRGGTTMASGGRFRCPSCRHE
parent: IOH40604_11
  protein stability index: 1.83

## TPAKSLDKFIEDYLLPDTCFRMQI
parent: IOH41283_2
  protein stability index: 2.79

## YKSFSKEQQTMDNLEKQLICPICL
parent: IOH40604_2
  protein stability index: 2.08

## YIGTHEYPHFSHRPSTLQAASTPQ
parent: IOH41283_62
  protein stability index: 1.94

## FPKSEQVYLHFLSVVTEDGPEPKD
parent: IOH40635_35
  protein stability index: 2.15

## QSSHYLQWILDKQDLLKERQKDLK [CCNC WT]
parent: IOH40631_2
  protein stability index: 3.21

## GKAYGWCSELIRHRRVHARKEPSH
parent: IOH40635_71
  protein stability index: 2.85

## TYLCERCQPRNLDKERAVLLQRRK
parent: IOH39874_27
  protein stability index: 2.15

## TGEFLKLPFERLAFVLSSNSLKHC
parent: IOH40892_39
  protein stability index: 2.65

## DKELLCCSCQADPRHQGHRVQPVK
parent: IOH40792_20
  protein stability index: 3.56

## TIRLRPRQVLCEKCKSTLSPPEAS [PWWP2B WT]
parent: IOH40143_16
  protein stability index: 3.06

## LTLVFFVQITGQPNILFYASTVLK
parent: IOH40813_48
  protein stability index: 2.98

## WEVQVSPTCPVCKDRASPADLRTN
parent: IOH40792_9
  protein stability index: 2.54

## FTGSQPTAERITQLSAPHCKKLSL
parent: IOH41048_39
  protein stability index: 2.08

## FSPNSPQFNVSGPGLLEEDNQWMT
parent: IOH40093_33
  protein stability index: 2.95

## RVAKKLQSGLVWTNCWLIRELNLP
parent: IOH41048_73
  protein stability index: 2.99

## LTVYAWERGSMKTHFNTAQGFRTV
parent: IOH41283_40
  protein stability index: 2.27

## EQIAERKRKMVSWEASSLGLVTAA
parent: IOH39874_95
  protein stability index: 2.83

## HSGEKPFICKECGKAYGWCSELIR
parent: IOH40635_69
  protein stability index: 2.02

## SKYENYFSASERLSLKRELSWYRG
parent: IOH40237_15
  protein stability index: 1.92

## LRLENNHCHIEESEHVLKKAHKYS
parent: IOH40537_79
  protein stability index: 2.32

## QQVKCIITEEKVCMVCKKKIGNSA
parent: IOH40537_139
  protein stability index: 2.82

## WSSRSPQERSRVLNQVADLLEQSL
parent: IOH41048_11
  protein stability index: 2.54

## LQLGEGVEFDVLPAFDALGQLTGG
parent: IOH41283_24
  protein stability index: 1.9

## TRIMIGLTLVFFVQITGQPNILFY
parent: IOH40813_47
  protein stability index: 3.31

## APKKELINIKGISEAKADKILAEA
parent: IOH41191_10
  protein stability index: 4.71

## PTCPVCKDRASPADLRTNHTLNNL
parent: IOH40792_10
  protein stability index: 2.83

## ENKPSTCSFSIERILGLDQKKDCV
parent: IOH40237_3
  protein stability index: 3.12

## KLAEAYLNLGPALSAALASSQKQH
parent: IOH40091_29
  protein stability index: 2.78
